Source: article PMC4352398

Experiments:
[1] = target: constitutively active Flag-Rab4 variant (Drosophila); assay: co-IP
[2] = target: dominant negative Flag-Rab4 variant (Drosophila); assay: co-IP

B1: Myc-RhoGAP68F (natural protein)
chain: MDAHSRFAPRLPGPAINPIVDNSDEPQPSLSDLHDFEPKLEFDDTELLAPSPLEKDVMVGDFVLAEDPELEPEEDVNPLEDDFEDQLREQSENFQTPRNKCDFLGTDKQGRHIFGIYASRFPEKSQLEGFVREIIKEIEPFVENDYILVYFHQGLKEDNKPSAQFLWNSYKELDRNFRKNLKTLYVVHPTWFIRVIWNFFSPFISDKFRKKLVYISSLDELRQALGLNKLKLPDNICDLDDKLNPSRKPSTPPPSSNINASRQQQHKMATTHQFGVPLKFIVMNSPCLNSIPPIVRKCVDSLSITGVIDTEGIFRRSGNHSEIMALKERVNRGEDVDLKSVNVHVIAGLLKSFLRDLAEPLLTFELYEDVTGFLDWPKEERSRNVTQLIREKLPEENYELFKYIVEFLVRVMDCEDLNKMTSSNLAIVFGPNFLWSRSTSTSLEEIAPINAFVDFVLQNHKDIYLIDVNQRTVSVD
fold stronger association than with wild type Flag-Rab4 [1]: 3.26 fold
fold weaker association than with wild type Flag-Rab4 [2]: 2.88 fold
